Laboratory results published in patent US6018021.

Legend:
[1] = target: full-length recombinant TAL-H protein (38 kDa), cleaved with thrombin from a GST fusion protein (human)
[2] = target: full-length recombinant TAL-H protein (38 kDa), cleaved with thrombin from a GST fusion protein (human); remark: listed apart in the source
[3] = target: purified human myelin basic protein (18.5 kDa) (human) (UniProt P02686)
[4] = target: tetanus toxoid (Clostridium tetani (strain Massachusetts / E88)) (UniProt P04958)

Substance	3H-TdR incorporation, Stimulation Index (S.I.) [1] [S.I.]	Stimulation Index [2] [S.I.]	Stimulation Index [3] [S.I.]	Stimulation Index [4] [S.I.]
peripheral blood lymphocytes of MS patient eight (cells without a defined receptor)	4.5			
peripheral blood lymphocytes of MS patient eleven (cells without a defined receptor)	10.3			
peripheral blood lymphocytes of MS patient fifteen (cells without a defined receptor)		4.61	1.53	0.96
peripheral blood lymphocytes of MS patient five (cells without a defined receptor)	3.3			
peripheral blood lymphocytes of MS patient four (cells without a defined receptor)	2.7			
peripheral blood lymphocytes of MS patient fourteen (cells without a defined receptor)	7.1			
peripheral blood lymphocytes of MS patient nine (cells without a defined receptor)	3.1			
peripheral blood lymphocytes of MS patient one (cells without a defined receptor)		1.81	0.89	0.8
peripheral blood lymphocytes of MS patient seven (cells without a defined receptor)	1.4			
peripheral blood lymphocytes of MS patient seventeen (cells without a defined receptor)		6.47	3.01	3.81
peripheral blood lymphocytes of MS patient six (cells without a defined receptor)	2.9			
peripheral blood lymphocytes of MS patient thirteen (cells without a defined receptor)		3.95	2.25	0.79
peripheral blood lymphocytes of MS patient twelve (cells without a defined receptor)	3.1			
peripheral blood lymphocytes of MS patient two (cells without a defined receptor)	4.7			
peripheral blood lymphocytes of control donor PEG (cells without a defined receptor)	0.7			
peripheral blood lymphocytes of control donor PRO (cells without a defined receptor)	1			
peripheral blood lymphocytes of control donor sixteen (cells without a defined receptor)	1.4			
peripheral blood lymphocytes of control donor ten (cells without a defined receptor)	2.3			
peripheral blood lymphocytes of control donor three (cells without a defined receptor)	1			
